Target: recombinant BAX protein (UniProt Q07812)
Assay: fluorescence polarization, FITC-labeled peptide incubated with recombinant BAX at various concentrations, 60 min, room temperature

recombinant BAX protein, sequence (Q07812 whole entry, form in doubt): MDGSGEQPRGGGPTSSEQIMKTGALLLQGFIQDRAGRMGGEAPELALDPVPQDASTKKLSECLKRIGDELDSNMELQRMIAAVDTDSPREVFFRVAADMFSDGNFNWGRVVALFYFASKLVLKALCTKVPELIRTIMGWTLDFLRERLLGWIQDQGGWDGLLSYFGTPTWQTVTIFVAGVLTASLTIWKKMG

EC50: 4.6 nM
Substance: BCL-2 BH4 SAHBA (peptide)
